Results published in article PMC7112951.

Legend:
[1] = molecular target: E. coli ClpP (residues 1-193 of mature ClpP), tag removed, used for cryo-EM (Escherichia coli); test: cryo-EM structure; ClpX^∆N pseudohexamer 4 µM and ClpP14 1.8 µM (2 µM in the results) in EM buffer (20 mM HEPES, pH 7.5, 100 mM KCl, 25 mM MgCl2, 5 mM ATPγS), 5 min at 25°C before vitrification; doubly capped complexes analysed
[2] = molecular target: [RKH2-AAA]2 single-chain ClpX^ΔN pseudohexamer (Escherichia coli) (UniProt P0A6H1)

## E. coli ClpP (residues 1-193 of mature ClpP), tag removed, used for cryo-EM (enzyme)
[1]
  stoichiometry N: 14

## ^cp7GFP-ssrA
[2]
  KM for steady-state degradation of ^CP7GFP-ssrA, against the parent pseudohexamer: 3 fold
